Measurements: PMC10758295 (Cell reports, 2023)

Target: CENP-A-H4 complex (UniProt P49450 1-140; P62805 1-103)
Assay: native gel or EMSA

Chain of CENP-A-H4 complex (P49450 whole entry, one chain of several): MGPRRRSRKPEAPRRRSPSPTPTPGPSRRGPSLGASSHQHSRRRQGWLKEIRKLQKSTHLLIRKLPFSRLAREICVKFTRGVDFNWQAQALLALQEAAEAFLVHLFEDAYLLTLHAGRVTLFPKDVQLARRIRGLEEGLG

binding result: binds
B1: His6-EWSR1 (natural protein)
chain: MASTDYSTYSQAAAQQGYSAYTAQPTQGYAQTTQAYGQQSYGTYGQPTDVSYTQAQTTATYGQTAYATSYGQPPTGYTTPTAPQAYSQPVQGYGTGAYDTTTATVTTTQASYAAQSAYGTQPAYPAYGQQPAATAPTRPQDGNKPTETSQPQSSTGGYNQPSLGYGQSNYSYPQVPGSYPMQPVTAPPSYPPTSYSSTQPTSYDQSSYSQQNTYGQPSSYGQQSSYGQQSSYGQQPPTSYPPQTGSYSQAPSQYSQQSSSYGQQSSFRQDHPSSMGVYGQESGGFSGPGENRSMSGPDNRGRGRGGFDRGGMSRGGRGGGRGGMGSAGERGGFNKPGGPMDEGPDLDLGPPVDPDEDSDNSAIYVQGLNDSVTLDDLADFFKQCGVVKMNKRTGQPMIHIYLDKETGKPKGDATVSYEDPPTAKAAVEWFDGKDFQGSKLKVSLARKKPPMNSMRGGLPPREGRGMPPPLRGGPGGPGGPGGPMGRMGGRGGDRGGFPPRGPRGSRGNPSGGGNVQHRAGDWQCPNPGCGNQNFAWRTECNQCKAPKPEGFLPPPFPPPGGDRGRGGPGGMRGGRGGLMDRGGPGGMFRGGRGGDRGGFRGGRGMDRGGFGGGRRGGPGGPPGPLMEQMGGRRGGRGGPGKMDKGEHRQERRDRPY
